Laboratory results from publication PMC5636895.
One block for each molecule: values may come before it. Ends that are not written are not given here.

Legend:
[1] = molecular target: platelet integrin αIIbβ3 (human) (UniProt P05106); test: optical trap-based force spectroscopy; as a1, with a competitive antagonist of αIIbβ3 (γC-12, cRGDFK or eptifibatide) present; concentrations not given
[2] = molecular target: platelet integrin αIIbβ3 (human) (UniProt P05106); test: optical trap-based force spectroscopy; as a7, with free γC-12 or cRGDFK present; concentrations not given
[3] = molecular target: platelet integrin αIIbβ3 (human) (UniProt P05106); test: optical trap-based force spectroscopy; as a5, with free γC-12 or cRGDFK present; concentrations not given
monomeric fibrin (human) = monomeric fibrin (human) (UniProt P02679); test: optical trap-based force spectroscopy; Mn^2+-activated αIIbβ3 on a laser-trapped latex bead tapped against a silica pedestal covalently coated with monomeric fibrin; 0.1 M HEPES, pH 7.4, 2 mg/ml BSA, 0.1% Triton X-100; two-state fit of the rupture force profile
UniProt P02679, sequence (P02679 whole entry, looked up): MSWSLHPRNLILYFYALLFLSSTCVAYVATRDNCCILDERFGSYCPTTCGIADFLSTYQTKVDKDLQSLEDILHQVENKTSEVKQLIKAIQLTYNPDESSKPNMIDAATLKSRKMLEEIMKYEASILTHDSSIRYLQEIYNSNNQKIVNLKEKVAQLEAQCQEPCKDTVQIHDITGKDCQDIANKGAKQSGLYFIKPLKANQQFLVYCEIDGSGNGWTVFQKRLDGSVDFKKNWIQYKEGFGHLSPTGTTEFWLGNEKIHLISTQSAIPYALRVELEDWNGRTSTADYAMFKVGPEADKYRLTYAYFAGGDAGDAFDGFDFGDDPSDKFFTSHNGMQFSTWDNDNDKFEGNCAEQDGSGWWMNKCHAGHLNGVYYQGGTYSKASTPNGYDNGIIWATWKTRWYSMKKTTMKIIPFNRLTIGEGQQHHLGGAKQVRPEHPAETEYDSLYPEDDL

[4] = molecular target: polymerized fibrin (human) (UniProt P02679); test: optical trap-based force spectroscopy; as a1, but with non-activated αIIbβ3 (no Mn^2+ activation) on the bead
[5] = molecular target: polymerized fibrin (human) (UniProt P02679); test: optical trap-based force spectroscopy; Mn^2+-activated αIIbβ3 (or BSA) on a laser-trapped 2.0 µm latex bead tapped against the edge of a fibrin clot in a flow chamber; 0.1 M HEPES, pH 7.4, 2 mg/ml BSA, 0.1% Triton X-100; 5 Hz, 800 nm amplitude; clot from re-calcified plasma or from purified fibrinogen, which one gave the tabulated data is not given; two-state fit of the rupture force profile
fibrinogen (human) = fibrinogen (human) (UniProt P02671); test: optical trap-based force spectroscopy; Mn^2+-activated αIIbβ3 on a laser-trapped latex bead tapped against a silica pedestal covalently coated with fibrinogen; 0.1 M HEPES, pH 7.4, 2 mg/ml BSA, 0.1% Triton X-100; two-state fit of the rupture force profile
UniProt P02671, sequence (P02671 36-866, chain 1 of 3): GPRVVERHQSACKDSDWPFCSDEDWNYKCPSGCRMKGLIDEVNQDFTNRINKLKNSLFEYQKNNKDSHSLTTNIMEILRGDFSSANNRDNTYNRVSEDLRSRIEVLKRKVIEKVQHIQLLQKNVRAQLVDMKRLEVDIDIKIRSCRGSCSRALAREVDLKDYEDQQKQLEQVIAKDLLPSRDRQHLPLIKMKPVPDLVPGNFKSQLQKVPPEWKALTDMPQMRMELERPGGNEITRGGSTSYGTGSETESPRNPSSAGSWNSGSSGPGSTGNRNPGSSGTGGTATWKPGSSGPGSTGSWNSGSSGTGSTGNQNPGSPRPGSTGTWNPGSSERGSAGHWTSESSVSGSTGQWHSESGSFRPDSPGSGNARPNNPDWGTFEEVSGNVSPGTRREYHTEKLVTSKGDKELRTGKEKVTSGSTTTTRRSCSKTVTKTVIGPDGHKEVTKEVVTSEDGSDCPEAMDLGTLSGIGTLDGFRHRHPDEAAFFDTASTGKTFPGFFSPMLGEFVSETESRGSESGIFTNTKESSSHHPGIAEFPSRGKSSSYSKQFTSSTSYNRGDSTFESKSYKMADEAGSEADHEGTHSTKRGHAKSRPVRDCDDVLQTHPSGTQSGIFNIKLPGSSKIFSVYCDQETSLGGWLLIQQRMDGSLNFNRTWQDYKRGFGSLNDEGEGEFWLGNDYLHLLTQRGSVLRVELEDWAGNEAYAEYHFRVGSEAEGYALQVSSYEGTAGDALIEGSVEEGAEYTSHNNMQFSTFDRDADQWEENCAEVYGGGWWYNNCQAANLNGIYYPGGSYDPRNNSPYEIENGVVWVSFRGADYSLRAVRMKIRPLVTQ
UniProt P02671, sequence (P02675 45-491, chain 2 of 3, further chain): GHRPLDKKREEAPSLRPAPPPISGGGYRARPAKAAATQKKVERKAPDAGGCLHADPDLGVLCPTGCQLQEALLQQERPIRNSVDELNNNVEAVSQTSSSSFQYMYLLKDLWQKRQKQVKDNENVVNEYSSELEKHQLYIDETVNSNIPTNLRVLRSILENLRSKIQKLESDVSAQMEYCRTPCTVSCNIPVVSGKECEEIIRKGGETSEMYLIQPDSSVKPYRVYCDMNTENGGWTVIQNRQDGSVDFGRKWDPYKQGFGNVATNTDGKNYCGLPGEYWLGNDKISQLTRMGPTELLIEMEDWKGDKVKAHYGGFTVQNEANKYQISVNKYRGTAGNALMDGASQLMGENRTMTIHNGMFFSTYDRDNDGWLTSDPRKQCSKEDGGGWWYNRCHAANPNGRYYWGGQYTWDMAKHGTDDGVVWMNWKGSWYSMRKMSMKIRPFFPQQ
UniProt P02671, sequence (P02679 other isoform, or with tags, fused parts or gaps, chain 3 of 3, further chain): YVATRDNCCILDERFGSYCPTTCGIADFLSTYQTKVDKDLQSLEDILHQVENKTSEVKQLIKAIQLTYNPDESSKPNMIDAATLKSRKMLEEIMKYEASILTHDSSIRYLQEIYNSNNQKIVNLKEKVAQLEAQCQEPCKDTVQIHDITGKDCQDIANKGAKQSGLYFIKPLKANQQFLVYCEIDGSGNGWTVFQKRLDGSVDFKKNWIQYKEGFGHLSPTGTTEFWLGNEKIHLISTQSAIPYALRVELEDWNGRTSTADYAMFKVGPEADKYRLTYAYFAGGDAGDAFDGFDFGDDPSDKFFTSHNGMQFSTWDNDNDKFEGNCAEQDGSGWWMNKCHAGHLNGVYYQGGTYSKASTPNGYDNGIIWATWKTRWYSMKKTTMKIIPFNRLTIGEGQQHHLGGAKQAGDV

- cumulative binding probability of αIIbβ3 to p-fibrin with γC-12 present, rupture forces 30–60 pN [1]: 2.1%
- cumulative binding probability of αIIbβ3 to p-fibrin with γC-12 present, rupture forces >60 pN [1]: 0.8%
- cumulative binding probability of αIIbβ3 to fibrinogen with γC-12 present, rupture forces 30–60 pN [2]: 1.8%
- cumulative binding probability of αIIbβ3 to fibrinogen with γC-12 present, rupture forces >60 pN [2]: 0.2%
- cumulative binding probability of αIIbβ3 to m-fibrin with γC-12 present, rupture forces 30–60 pN [3]: 7.4%
- cumulative binding probability of αIIbβ3 to m-fibrin with γC-12 present, rupture forces >60 pN [3]: 12.3%
Molecule: fibrinogen γC-dodecapeptide (from UniProt P02679-2 426-437)

- cumulative binding probability, rupture forces 30–60 pN (monomeric fibrin (human)): 21%
- cumulative binding probability, rupture forces >60 pN (monomeric fibrin (human)): 22%
- highest rupture force (monomeric fibrin (human)): < 140 pN
- initial probability of the high-affinity state (two-state fit) (monomeric fibrin (human)): 0.0181
- peak of the strong rupture forces (monomeric fibrin (human)): 70 to 80 pN
- cumulative binding probability, rupture forces 30–60 pN [4]: 4.7%
- cumulative binding probability, rupture forces >60 pN [4]: 1.7%
- cumulative binding probability, rupture forces 30–60 pN [5]: 4.6%
- cumulative binding probability, rupture forces >60 pN [5]: 3.2%
- initial probability of the high-affinity state (two-state fit) [5]: 0.014
- peak of the strong rupture forces [5]: 70 to 80 pN
- cumulative binding probability, rupture forces 30–60 pN (fibrinogen (human)): 4.8%
- cumulative binding probability, rupture forces >60 pN (fibrinogen (human)): 3.6%
- highest rupture force (fibrinogen (human)): < 140 pN
- initial probability of the high-affinity state (two-state fit) (fibrinogen (human)): 0.0063
- peak of the strong rupture forces (fibrinogen (human)): 70 to 80 pN
Molecule: platelet integrin αIIbβ3 (from UniProt P05106 27-788) (receptor)

- cumulative binding probability of αIIbβ3 to p-fibrin with cRGDFK present, rupture forces 30–60 pN [1]: 2.2%
- cumulative binding probability of αIIbβ3 to p-fibrin with cRGDFK present, rupture forces >60 pN [1]: 0.6%
- cumulative binding probability of αIIbβ3 to fibrinogen with cRGDFK present, rupture forces 30–60 pN [2]: 2.5%
- cumulative binding probability of αIIbβ3 to fibrinogen with cRGDFK present, rupture forces >60 pN [2]: 0.3%
- cumulative binding probability of αIIbβ3 to m-fibrin with cRGDFK present, rupture forces 30–60 pN [3]: 5.1%
- cumulative binding probability of αIIbβ3 to m-fibrin with cRGDFK present, rupture forces >60 pN [3]: 2.7%
B1: cyclic RGDFK peptide (peptide)
peptide: RGDFK
modifications: also: cyclic, ring type not given here
